Test results taken from article PMC12115362.

Assays:
Test in all cases: SEC; Agilent-1100, TSK G3000SWXL column; 0.2 M NaH2PO4, 0.1 M arginine, 1% IPA, pH 6.5; peaks integrated for approximate trimer percentage; N = 3
[1] = target: hMPV F pre-F benchmark D185P (subtype A2, CAN97-83 ectodomain with foldon) (human metapneumovirus, subtype A2, strain CAN97-83 | T4)
[2] = target: hMPV F pre-F design K362F_G366F (subtype A2, CAN97-83 ectodomain with foldon) (human metapneumovirus, subtype A2, strain CAN97-83 | T4)
[3] = target: hMPV F pre-F design N46V_T160F (subtype A2, CAN97-83 ectodomain with foldon) (human metapneumovirus, subtype A2, strain CAN97-83 | T4)

Substance “hMPV F pre-F benchmark D185P (subtype A2, CAN97-83 ectodomain with foldon) (domain or fragment)” has a Trimer (%) [1] of 97.1% and a stoichiometry N [1] of 3.

In the case of “hMPV F pre-F design K362F_G366F (subtype A2, CAN97-83 ectodomain with foldon) (domain or fragment)”, the Trimer (%) [2] is reported as 76.9% and the stoichiometry N [2] is reported as 3.

Work on “hMPV F pre-F design N46V_T160F (subtype A2, CAN97-83 ectodomain with foldon) (domain or fragment)” yielded a Trimer (%) [3] of 94.7% and a stoichiometry N [3] of 3.
